Results on 15 sequences are retold here after the Immune Epitope Database (IEDB).

Some results are limits rather than exact numbers.

Test [1] deals with HLA-A*26:01. Kind of test: IEDB peptide-MHC binding, purified MHC/competitive/fluorescence; filed as Kd, often an IC50 or EC50 that approximates it; ≥ and ≤ were set here for values at or beyond the usual limits of such assays.
Test [2] deals with HLA-A*01:01. The description is as above.
Test [3] concerns the target HLA-B*15:01. The test is described as above.
Test [4] addresses HLA-A*26:01. Nature of the test: IEDB peptide-MHC binding, purified MHC/competitive/radioactivity; filed as Kd, often an IC50 or EC50 that approximates it; ≥ and ≤ were set here for values at or beyond the usual limits of such assays. The conditions noted are these: source organism: Dengue virus 2 Jamaica/1409/1983.
For test [5], the target named is HLA-A*02:01. Described as above.
For test [6], the target named is HLA-A*02:06. The description is as above.
Test [7] concerns the target HLA-A*02:17. The description is as above.
The target in test [8] is HLA-A*68:02. Described as above.
For test [9], the target named is HLA-A*02:03. The description is as above.
Test [10] addresses HLA-B*35:01. Described as above. To be noted: source organism: Dengue virus 3 Martinique/1243/1999.
Test [11] deals with HLA-A*02:03. Nature of the test: IEDB peptide-MHC binding, purified MHC/direct/fluorescence; filed as Kd, often an IC50 or EC50 that approximates it; ≥ and ≤ were set here for values at or beyond the usual limits of such assays.
For test [12], the target named is HLA-A*02:16. The description is as above. To be noted: source organism: Orthohantavirus negraense.
Test [13] deals with HLA-A*02:12. The description is as above. The conditions noted are these: source organism: Orthohantavirus negraense.
Test [14] concerns the target HLA-A*02:19. The description is as above.
Test [15] deals with HLA-A*24:03. Described as above. The conditions noted are these: source organism: Orthohantavirus negraense.
Test [16] concerns the target HLA-A*29:02. Described as above. To be noted: source organism: Orthohantavirus negraense.
Test [17] addresses HLA-A*02:01. Kind of test: IEDB peptide-MHC binding, purified MHC/competitive/fluorescence; filed as Kd, often an IC50 or EC50 that approximates it; ≥ and ≤ were set here for values at or beyond the usual limits of such assays. The conditions noted are these: source organism: Orthohantavirus negraense.
For test [18], the target named is HLA-B*15:17. Described as above. To be noted: source organism: Orthohantavirus negraense.
In test [19] the target is HLA-A*03:01. The description is as above.
Test [20] deals with HLA-B*51:01. The description is as above. The conditions noted are these: source organism: Orthohantavirus negraense.
For test [21], the target named is HLA-B*57:01. Described as above. The conditions noted are these: source organism: Orthohantavirus negraense.
Test [22] concerns the target HLA-B*39:01. The test is described as above. To be noted: source organism: Orthohantavirus negraense.
The target of test [23] is HLA-A*69:01. Described as above. To be noted: source organism: Orthohantavirus negraense.
The target in test [24] is HLA-B*27:03. The description is as above. To be noted: source organism: Orthohantavirus negraense.
In test [25] the target is HLA-B*18:01. Described as above. To be noted: source organism: Orthohantavirus negraense.
Test [26] deals with HLA-B*46:01. The description is as above. To be noted: source organism: Orthohantavirus negraense.
The target of test [27] is HLA-A*26:01. Nature of the test: IEDB peptide-MHC binding, purified MHC/direct/fluorescence; filed as Kd, often an IC50 or EC50 that approximates it; ≥ and ≤ were set here for values at or beyond the usual limits of such assays. The conditions noted are these: source organism: Bacillus anthracis str. A0465.
The target in test [28] is HLA-B*51:01. The description is as above. To be noted: source organism: Bacillus anthracis str. A0465.
The target of test [29] is HLA-B*39:01. The description is as above. To be noted: source organism: Bacillus anthracis str. A0465.
For test [30], the target named is HLA-A*69:01. The description is as above. To be noted: source organism: Bacillus anthracis str. A0465.
In test [31] the target is HLA-A*68:02. Described as above. To be noted: source organism: Bacillus anthracis str. A0465.
The target of test [32] is HLA-B*18:01. Described as above. The conditions noted are these: source organism: Bacillus anthracis str. A0465.
Test [33] concerns the target HLA-B*46:01. The test is described as above. The conditions noted are these: source organism: Bacillus anthracis str. A0465.
For test [34], the target named is HLA-A*32:01. Nature of the test: IEDB peptide-MHC binding, purified MHC/competitive/radioactivity; filed as Kd, often an IC50 or EC50 that approximates it; ≥ and ≤ were set here for values at or beyond the usual limits of such assays. The conditions noted are these: source organism: Dengue virus 2 Peru/IQT2913/1996.
Where [35] appears, read: source organism: Escherichia coli 536.
The mark [36] stands for this setting: source organism: Dengue virus 2 Jamaica/1409/1983.
Setting [37] is: source organism: Dengue virus 4 Dominica/814669/1981.
The mark [38] stands for this setting: source organism: Dengue virus 3 Martinique/1243/1999.
[39] abbreviates: source organism: Dengue virus 4 Philippines/H241/1956.
Where [40] appears, read: source organism: Orthohantavirus negraense.
Where [41] appears, read: source organism: Dengue virus 3 China/80-2/1980.
[42] abbreviates: source organism: Dengue virus 2 Peru/IQT2913/1996.
Where [43] appears, read: source organism: Dengue virus 2 Thailand/NGS-C/1944.
Setting [44] is: source organism: Bacillus anthracis str. A0465.
The mark [45] stands for this setting: source organism: Salmonella enterica subsp. enterica serovar Typhi.

For orientation: Kd means a measure of binding affinity in units of concentration. Take AVASLLDEY: the figures for the Kd in [1] (setting [35]), in test [2] (setting [35]) and in [3] (setting [35]) were 871 nM, 720 nM and 96.2 nM, respectively.

Turning to WTMKILIGV, the Kd in test [4] was determined as 5360 nM; in test [5] (setting [36]), 22.5 nM; in test [6] (setting [36]), 17.7 nM; in test [7] (setting [36]) it was 6060 nM; in test [8] (setting [36]), 8.95 nM.

SLSVSLVLV: the Kd amounted to 1.86 nM in [9] (setting [36]), 58.5 nM in [5] (setting [36]) and 4450 nM in test [7] (setting [36]).

Take KMSPGYVLGV: the Kd came to 0.57 nM in test [9] (setting [37]), 4.44 nM in [5] (setting [37]), 70.4 nM in test [6] (setting [37]) and 324 nM in test [7] (setting [37]).

MLWMAEIPL: the Kd in test [10] was determined as 408 nM; in test [5] (setting [38]), 4.11 nM; in test [7] (setting [38]), 9.18 nM.

In the case of TLLCLIPTA, the Kd in [5] (setting [39]) came out at 5.77 nM; in [7] (setting [39]), 9560 nM.

SLLFKTEDGV: the Kd in [5] (setting [36]) came to 67.4 nM; in test [7] (setting [36]), 719 nM.

SLLFREVWK: the Kd in [11] (setting [40]), in test [12], in [13], in [14] (setting [40]), in test [15] and in test [16] was not below 20000 nM each time. The Kd in [1] (setting [40]) is not below 20000 nM; in test [17], not below 20000 nM; in test [18], not below 20000 nM; in [19] (setting [40]), 37.4 nM; in test [20], not below 20000 nM; in [21], not below 20000 nM. Moreover, the Kd in test [22], in test [23], in test [24], in [25], in test [3] (setting [40]) and in test [26] was not below 20000 nM throughout.

As to TLMLVALLGA, the Kd worked out at 14.4 nM in [9] (setting [39]), 5.42 nM in test [5] (setting [39]), 378 nM in test [6] (setting [39]) and 11000 nM in test [7] (setting [39]).

In the case of FTMGVLCLA, the Kd in [9] (setting [38]) came out at 28.7 nM; in [5] (setting [41]), 12.3 nM; in [6] (setting [38]) it was 3.17 nM; in [7] (setting [41]) it was 6740 nM; in [8] (setting [38]), 12.5 nM.

Consider LLVISGLFPV, for which the figures for the Kd in test [9] (setting [42]), in [6] (setting [42]) and in test [7] (setting [43]) were 4.84 nM, 1.13 nM and 45.5 nM, respectively.

As to RLLRFTGLF, the Kd in test [11] (setting [44]), in test [27], in [28], in test [14] (setting [44]), in test [29] and in test [30] was not below 20000 nM in each case. The Kd in [31], in [32] and in test [33] was not below 20000 nM throughout.

Turning to VLLLVTHYAI, the Kd came to 219 nM in test [5] (setting [41]) and 561 nM in [7] (setting [41]).

For WVAGVQLLY, the Kd was determined as 39 nM in test [2] (setting [45]) and 486 nM in test [19] (setting [45]).

GLFPVSIPI: the Kd in [9] (setting [42]) was 4.32 nM; in test [5] (setting [43]) it was 2.13 nM; in [34] it was 6.47 nM; in [7] (setting [43]), 69.9 nM.
